According to article PMC3299919:

Molecular target: Nucleocapsid protein N (Rift Valley fever virus (strain M12)) (UniProt P21700)
Assay: FP competition
Conditions: 10 mM HEPES pH 7.3 ([…]) or pH 8 ([…]

Sequence of UniProt P21700 (P21700 whole entry): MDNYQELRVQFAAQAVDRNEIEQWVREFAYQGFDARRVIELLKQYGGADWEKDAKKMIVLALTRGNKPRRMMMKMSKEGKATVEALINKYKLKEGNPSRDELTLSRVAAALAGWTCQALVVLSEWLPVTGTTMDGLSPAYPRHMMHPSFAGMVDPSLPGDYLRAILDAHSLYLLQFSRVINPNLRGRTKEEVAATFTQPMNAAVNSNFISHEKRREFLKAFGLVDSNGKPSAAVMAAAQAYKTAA

CGUCCCGUAGUGUCGGUACUGAUUGAUGUG [MBE15.3]
Ki: 200 nM
